Assay results taken from US20170044234A1 (INSERM INSTITUT NATIONAL DE LA SANTE ET DE LA RECHERCHE …, published 2017).
Ends that are not written are not given here.

B1: neutralizing anti-CD95L mAb (Nok1) (antibody, from another filing, V domains shown)
VH: VQLQESGPELVKPGASVKISCKASGYAFSSSWMNWVKQRPGKGLEWIGRIYPGDGDTNDNGKFKGKATLTADKSSSTAYMQLSSLTSEDSAVYFCARSYYYDGSPWFTYWGQGTTVTVSS
VL: DIQMTQSPSSLSASLGDRVTISCRASQDISNYLNWYQQKPDGTVKLLIYYTSRLHSGVPSRFSGSGSGTDYSLTISNLEPEDIATYFCQQYSEFPWTFGGGTKLEIKR
B2: CD95^(175-210)-mCherry (other)
chain: KRKEVQKTCRKHRKENQGSHESPTLNPETVAINLSD-mCherry
modifications: also: mCherry fused C-terminally, junction not given here
notes: Expressed in HEK cells together with PLCγ1; also called CID-mCherry; CID-mCHERRY; not shown: mCherry of vector pmCHERRY-N1, fused C-terminally
B3: adaptor protein FADD (other, UniProt Q13158 1-208, looked up)
chain: MDPFLVLLHSVSSSLSSSELTELKFLCLGRVGKRKLERVQSGLDLFSMLLEQNDLEPGHTELLRELLASLRRHDLLRRVDDFEAGAAAGAAPGEEDLCAAFNVICDNVGKDWRRLARQLKVSDTKIDSIEDRYPRNLTERVRESLRIWKNTEKENATVAHLVGALRSCQMNLVADLVQEVQQARDLQNRSGAMSPMSWNSDASTSEAS
notes: Detected with an anti-human FADD mAb (clone 1); also called Fas-associated death domain protein
B4: GFP-fused CD95^1-175 (receptor)
chain: RLSSKSVNAQVTDINSKGLELRKTVTTVETQNLEGLHHDGQFCHKPCPPGERKARDCTVNGDEPDCVPCQEGKEYTDKAHFSSKCRRCRLCDEGHGLEVEINCTRTQNTKCRCKPNFFCNSTVCEHCDPCTKCEHGIIKECTLTSNTKCKEEGSRSNLGWLCLLLLPIPLIVWVK
notes: also called CD95 devoid of the entire intracellular domain; not shown: GFP of vector pEGFP-N1 (Clontech), fused C-terminally

Assays:
[1] = target: serum CD95L of SLE patients (soluble, homotrimeric) (human) (UniProt P48023); assay: cell-based or functional assay
[2] = target: T1, Myc-tagged full-length human PLCγ1 (human, UniProt P19174 1-1290); assay: PLCγ1 immunoprecipitation from HEK cells co-transfected with PLCγ1 and CID-mCherry, immunoblot
T1 construct: Transfected into HEK cells; also called wild type PLCγ1; phospholipase Cγ1; not shown: Myc tag of the pTriEx-4 construct
T1 sequence (looked up): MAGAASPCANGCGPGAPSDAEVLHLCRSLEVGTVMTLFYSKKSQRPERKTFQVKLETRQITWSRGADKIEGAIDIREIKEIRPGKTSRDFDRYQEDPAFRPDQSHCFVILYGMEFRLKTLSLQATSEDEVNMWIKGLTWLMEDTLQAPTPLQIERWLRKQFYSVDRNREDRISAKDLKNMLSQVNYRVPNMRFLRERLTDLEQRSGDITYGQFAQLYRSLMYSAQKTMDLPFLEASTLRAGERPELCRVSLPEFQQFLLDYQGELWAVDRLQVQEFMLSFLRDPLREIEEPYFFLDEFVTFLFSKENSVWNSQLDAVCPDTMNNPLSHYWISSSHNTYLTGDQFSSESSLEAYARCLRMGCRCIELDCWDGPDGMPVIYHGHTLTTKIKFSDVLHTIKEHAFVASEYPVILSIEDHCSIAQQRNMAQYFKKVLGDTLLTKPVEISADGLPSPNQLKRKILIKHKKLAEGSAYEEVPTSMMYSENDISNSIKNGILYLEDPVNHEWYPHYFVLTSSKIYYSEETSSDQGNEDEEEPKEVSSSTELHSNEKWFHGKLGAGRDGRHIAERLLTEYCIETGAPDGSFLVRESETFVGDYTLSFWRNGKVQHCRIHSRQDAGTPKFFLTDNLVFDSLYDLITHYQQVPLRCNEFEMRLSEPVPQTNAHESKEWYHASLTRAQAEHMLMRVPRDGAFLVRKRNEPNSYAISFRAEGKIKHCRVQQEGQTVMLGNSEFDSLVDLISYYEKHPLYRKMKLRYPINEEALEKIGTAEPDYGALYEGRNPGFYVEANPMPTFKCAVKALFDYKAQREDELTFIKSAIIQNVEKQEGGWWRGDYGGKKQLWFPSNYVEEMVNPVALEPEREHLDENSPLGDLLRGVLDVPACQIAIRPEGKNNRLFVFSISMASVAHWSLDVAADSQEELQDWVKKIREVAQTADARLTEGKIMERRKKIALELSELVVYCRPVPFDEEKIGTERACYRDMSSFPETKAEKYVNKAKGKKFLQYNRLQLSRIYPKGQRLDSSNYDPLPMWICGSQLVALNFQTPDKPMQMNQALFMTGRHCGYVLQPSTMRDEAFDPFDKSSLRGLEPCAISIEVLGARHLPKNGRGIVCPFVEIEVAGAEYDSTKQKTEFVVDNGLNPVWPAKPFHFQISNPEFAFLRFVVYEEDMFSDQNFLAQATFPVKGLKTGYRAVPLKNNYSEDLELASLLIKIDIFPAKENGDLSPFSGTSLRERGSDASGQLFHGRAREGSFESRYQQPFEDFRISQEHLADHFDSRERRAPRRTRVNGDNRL

GFP-fused CD95^1-210 = target: T2, GFP-fused CD95^1-210 (human, UniProt P25445 17-226); assay: co-immunoprecipitation with CD95 from transfected HEK cells stimulated with CD95L, immunoblot
T2 construct: also called CD95 construct devoid of DD; not shown: GFP of vector pEGFP-N1 (Clontech), fused C-terminally
T2 sequence: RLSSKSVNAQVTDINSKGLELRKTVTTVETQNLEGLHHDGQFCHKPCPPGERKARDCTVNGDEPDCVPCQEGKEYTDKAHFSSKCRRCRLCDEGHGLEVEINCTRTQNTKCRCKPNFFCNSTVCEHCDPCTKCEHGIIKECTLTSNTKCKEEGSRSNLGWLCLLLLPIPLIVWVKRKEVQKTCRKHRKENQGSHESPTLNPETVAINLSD

adaptor protein FADD = target: B3; assay: as above
[3] = target: T1, Myc-tagged full-length human PLCγ1; assay: as above

Sequence of serum CD95L of SLE patients (soluble, homotrimeric) (human) (P48023 130-281 limits assumed): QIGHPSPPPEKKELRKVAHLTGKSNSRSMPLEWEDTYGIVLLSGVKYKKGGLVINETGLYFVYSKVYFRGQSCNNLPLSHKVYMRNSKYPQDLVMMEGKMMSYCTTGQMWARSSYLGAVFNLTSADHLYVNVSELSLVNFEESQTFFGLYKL

B1 was tested, and the T-cell transmigration induced by fractions 76-78 [1] was under 50%.

B2: binds [2].

B3: no binding (GFP-fused CD95^1-210).

B4: no binding (adaptor protein FADD); no binding [3].
